Data on one substance can be found in paper PMC9008041.

Assay [1] has as its target purified polymeric mucin MUC2 (human) (UniProt Q02817). The assay is described as follows: rate-zonal centrifugation on sucrose gradients; purified polymeric mucin incubated 1 h at 37 °C with cyclic peptide (1 mM; CsA also 200 μM and 2 mM; MUC5B 100, 200 or 400 μg/mL), 10-35% (w/v) sucrose in PBS pH 7.4, 210,000 g, 15 °C, 1 h 15 min; mucin detected in fractions and pellet by slot blot; the peptide itself is not detected.

Assay [2] has as its target purified polymeric mucin MUC5AC (human) (UniProt P98088). The description is as above.
The target in assay [3] is purified polymeric mucin MUC5B (human) (UniProt Q9HC84). The description is as above.
In assay [4] the target is recombinant N-terminal protein of MUC5B (NT5B) (human) (UniProt Q9HC84). Nature of the assay: rate-zonal centrifugation on sucrose gradients; recombinant NT5B or CT5B with 200 μM CsA in PBS at pH 5.5, compared with pH 7.4; 5-20% (w/v) sucrose; detected by anti-His slot blot.
Assay [5] deals with purified polymeric mucin MUC5B (human) (UniProt Q9HC84). The assay is described as follows: rate-zonal centrifugation on sucrose gradients; purified MUC5B with 200 μM CsA in PBS at pH 5.5, compared with pH 7.4; 10-35% (w/v) sucrose; MUC5B detected by slot blot.
For assay [6], the target named is recombinant C-terminal protein of MUC5B (CT5B) (human). Nature of the assay: rate-zonal centrifugation on sucrose gradients; recombinant MUC5B sub-domain (NT5B, CT5B 400 μg/mL) incubated 1 h at 37 °C with 1 mM CsA, 5-20% (w/v) sucrose in PBS pH 7.4, 210,000 g, 15 °C, 2 h 30 min; protein detected by anti-His slot blot (NT5B, CT5B) or SDS-PAGE (Cys7).
The target of assay [7] is recombinant N-terminal protein of MUC5B (NT5B) (human) (UniProt Q9HC84). Described as above.

The substance cyclosporin A (peptide) gave a percent of MUC2 in the pellet (1 mM CsA) in assay [1] of 14.6%. This substance came in with a percent of MUC5AC in the pellet (1 mM CsA) in assay [2] of 8.2%. In assay [3], this substance yielded a percent of MUC5B in the pellet (1 mM CsA, MUC5B 100 μg/mL) of 18.6%; a percent of MUC5B in the pellet (1 mM CsA, MUC5B 200 μg/mL) of 13.3%; a percent of MUC5B in the pellet (2 mM CsA, MUC5B 200 μg/mL) of 11.8%. Besides, in assay [4], the fold increase of NT5B in the pellet at pH 5.5 against pH 7.4 (200 μM CsA) stood at 4.2 fold. Further, the fold increase of MUC5B in the pellet at pH 5.5 against pH 7.4 (200 μM CsA) in assay [5] was 3.6 fold. The percent of CT5B in the pellet (1 mM CsA) in assay [6] was 29.1%. The percent of NT5B in the pellet (1 mM CsA) in assay [7] was 16.3%.
